Results on five molecules are retold here after US10078082B2, “Detection of free and protein-bound non-human gal-alpha(1-3)-gal epitope” (National University of Ireland, Galway, priority 2012, dated 2018).

Data set [1] has as its system scFv G12. Put plainly: Competitive ELISA specificity study: inhibition of scFv binding to Gal-α-(1→3)-Gal-BSA by free sugars. Also on record: species or system chicken. Particulars: highest concentration 1 mg/mL. The procedure: (§1) Each scFv was evaluated in a competitive ELISA format using free Gal-α-(1,3)-Gal as standard. Microtitre plate wells were coated and blocked as previously described. Standard solutions were prepared in PBS (pH 7.2), ranging in concentration from 2 μg/ml (5.84 μM) to 20 mg/ml (58.4 mM). For the assay, 50 μl of each standard and buffer blank were added to designated wells in triplicate, followed by 50 μl of a sub-saturating concentration (1 μg/ml) of the appropriate scFv, giving a final standard concentration in the assay of 1 μg/ml (2.92 μM) to 10 mg/ml (29.2 mM). The plate was incubated for 1 hour at 37° C. with shaking After washing, bound scFv was detected as previously described. The ratios of the OD for each standard versus the OD given by the blank (B/Bo) were plotted versus standard concentration and standard curve plotted using SigmaPlot (v11, Systat Software Inc). The detection limits were determined as the concentration corresponding to the mean response for zero standard minus three times the standard deviation (SD). Inhibition of scFv by a panel of free sugars. scFv binding to Gal-α-(1→3)-Gal-BSA was determined against a panel of 21 free form sugars; D-Cellibiose, Melibiose, D-Raffinose, Lactulose, Palatinose, β-Gentibiose, D+ Trehalose, D+ Turanose, L− Fructose, D+ Glucose, Sucrose, Galacto-N-biose, 4β-Galactobiose, gal-α(1-3)-gal-β-(1-4)-gal, gal-α(1-3)-gal-β-(1-4)-glc, gal-α(1-3)-gal-β-(1-4)-gal-all-3)-gal, Laminarbiose, β1-4-D-Xylobiose, N-Acetyl-D-glucoseamine (GlcNAc), Galactose, N-Acetyl-D-lactosamine (LacNAc), (sourced from Sigma Aldrich and Dextra, UK). Inhibitions were performed by serial dilutions of free sugars and a sub-saturating concentration scFv added to each dilution and pre-incubated for 60 minutes at 37° C., prior to performing ELISA against Gal-α-(1→3)-Gal-BSA as used throughout. The percent binding of the scFv was plotted against the […], and the 50% effective dose determined (ED50; dose of free sugar causing 50% displacement of the scFv).
In general terms: An ELISA detects its analyte on a solid surface through an enzyme-linked reagent.

Data set [2] deals with scFv A11. The data set is described as above. Also on record: species or system chicken. Particulars: highest concentration 1 mg/mL. The procedure:
as §1

Data set [3] relates to scFv A4. The data set is described as above. The conditions noted are these: highest concentration 1 mg/mL. Also on record: species or system chicken. The procedure:
as §1

Data set [4] in a line: NGC microarray specificity analysis (over 50 structures). The data set is classed as binding. The conditions noted are these: FIG. 8. The source says:
FIG. 8: Comparison of the specificity of selected scFv fragments A4, A11 and G12 against a panel of related NGCs compared directly to the specificity binding pattern of the lectin GS-1-B4, considered as highly specific for α-Gal residues.
The spectacular specificity of the scFvs has also been determined by analysis on an NGC microarray containing over 50 different structures. […] ScFv-based competitive ELISA. Competitive ELISAs were established with each of the three scFvs examined using as standard the free Gal-α-(1→3)-Gal disaccharide within the concentration range 0.001 to 10000 μg/ml (2.93 nM to 29.3 mM). […] A panel of 21 related sugars were tested in the scFv-based competitive assays (Table 1). […] All three scFvs were more reactive to the disaccharide than Gal-α-(1,3)-Gal-containing trisaccharides, as shown by lower inhibitory activity of the trisaccharides and supporting the results obtained in the direct ELISA.

A short description of data set [5]: Near UV circular dichroism interaction study with disaccharides. The class given is binding. The conditions noted are these: pH 7.2, 20° C. The procedure: The scFvs A4, A11 and G12 were used to check their interaction with Galα(1,3)Galβ1-OMe (Carbosynth) and with melibiose, the latter as negative control.
(§2) Two types of experiments were performed: firstly, the near UV circular dichroism (CD) spectra of the scFvs in the absence and presence of 4 mM of both disaccharides have been compared. Secondly, the effect of the disaccharides on the thermal stability of the scFvs has been studied.
(§3) Samples were diluted in NaPi (10 mM)-NaCl (150 mM) pH 7.2 and either concentrated by ultrafiltration twice (for small amounts) or exhaustively dialyzed. CD spectra were acquired at 20° C. in a J-810 spectropolarimeter, equipped with a Peltier temperature control system, using a bandwidth of 1 nm, a scan rate of 20 nm/min and a response time of 4 s, collecting data every 0.2 nm and 3 accumulations for each spectrum. Near-UV spectra were registered at around 1.0 mg ml^−1 protein concentration in 1-cm path-length cells while far-UV spectra were recorded in 0.1 cm path-length quartz cells at a protein concentration of around 0.2 mg ml^−1. For all CD spectra, the corresponding buffer baseline was subtracted. Thermal stability was evaluated by measuring ellipticity changes at 208 nm while increasing temperature from 20 to 90° C., with a constant rate of 40° C./h. Ellipticity changes were collected every 0.2° C. and spectra were collected every 10° C. The thermal denaturation profiles were fitted to a sigmoidal function using the equation:—
On the technique in general: CD spectra are sensitive to the conformation of chiral molecules.

Data set [6] in a line: Thermal denaturation monitored by far UV CD ellipticity. The data set is classed as physicochemical. The procedure: as §2
as §3, with “Thermal stability was evaluated by measuring ellipticity changes at 208 nm while increasing temperature from 20 to 90° C., with a constant rate of 40° C./h.” left out
where Θ(T) represents the ellipticity at temperature T (Kelvin), ΘN the ellipticity of the native protein, n the number of transitions, ΔΘ1 the ellipticity increment of transition i, R the gas constant and Tmi and HDi the temperature at the transition midpoint (melting temperature) and the parameter which describes the cooperativity (slope) of the corresponding transition, respectively.
In the second set of experiments, the thermal stability of the scFvs in the absence and presence of the disaccharides was investigated. With this type of experiment, we were able to get: 1) the far UV CD spectra at increasing temperatures, which gave information on changes in the secondary structure of the proteins upon heating and 2) the profile of the change in ellipticity at a certain wavelength, also with increasing temperatures, that allowed the calculation of the temperature of transition (Tm). Direct comparison of the Tm in the absence and presence of sugar provided information about the effect of the sugar on the scFvs, a thermal stabilisation (i.e. an increase in the Tm in the presence of the sugar) being indicative of interaction.

Data set [7] in a line: scFv-based competitive ELISA, free Gal-α-(1→3)-Gal as standard, immobilized Gal-α-(1→3)-Gal-BSA. The class given is binding. The conditions noted are these: free Gal-α-(1→3)-Gal disaccharide standard; plates coated with Gal-α-(1→3)-Gal-BSA 10 μg/ml; FIG. 6; listed as G12. The procedure: as §1, with “FIG. 6: Standard curves for competitive ELISA given by scFv clones G12, A4, and A11. Plates were coated with immobilized Gal-α-(1→3)-Gal-BSA [10 μg/ml] and incubated with 2.5 μg/ml of the scFvs in the presence of an increasing concentrations of free Gal-α-(1→3)-Gal. The error bars indicate the standard error of the mean of triplicate determinations. Each” for “Each”

Where [8] appears, read: +4 mM Galα(1,3)Galβ1-OMe, λ 208.
[9] abbreviates: +4 mM Galα(1,3)Galβ1-OMe, λ 218.
Where [10] appears, read: in the presence of 4 mM Galα(1,3)Galβ1-OMe, 208 nm.

Where “and” joins values, the source holds several entries; their conditions need not be identical. Equal entries are not always repeated.

In the case of `OC[C@H]1O[C@H](O[C@H]2[C@@H](O)[C@@H](CO)O[C@@H](O[C@@H]3[C@H](O)[C@@H](O)[C@@H](O[C@H]4[C@@H](O)[C@@H](CO)OC(O)[C@@H]4O)O[C@@H]3CO)[C@@H]2O)[C@H](O)[C@@H](O)[C@H]1O` (stereo partly drawn) [gal-α(1,3)-gal-β-(1,4)-gal-α-(1,3)-gal], in data set [1], the “% Maximum inhibition at Max Conc G12” value worked out at 73.54%. Further, the “% Maximum inhibition at Max Conc A11” value in data set [2] is given as 78.41%. Moreover, the “% Maximum inhibition at Max Conc A4” value in data set [3] is 73.48%.

Turning to `OC[C@H]1O[C@H](O[C@H]2[C@@H](O)[C@@H](CO)O[C@@H](O[C@H]3[C@H](O)[C@@H](O)C(O)O[C@@H]3CO)[C@@H]2O)[C@H](O)[C@@H](O)[C@H]1O` (stereo partly drawn) [gal-α(1,3)-gal-β-(1,4)-glc], the “% Maximum inhibition at Max Conc G12” value in data set [1] was found to be 83.03%. Besides, the “% Maximum inhibition at Max Conc A11” value in data set [2] is reported as 73.88%. Also, in data set [3], the “% Maximum inhibition at Max Conc A4” value stood at 66.20%.

On to `OCC1OC(OC2C(O)C(CO)OC(OC3C(CO)OC(O)C(O)C3O)C2O)C(O)C(O)C1O` (stereo not drawn) [gal-α-(1,3)-gal-β-(1,4)-gal], for which the “% Maximum inhibition at Max Conc G12” value in data set [1] is reported as 64.43%. For the same molecule, the “% Maximum inhibition at Max Conc A11” value in data set [2] amounted to 76.83%. The “% Maximum inhibition at Max Conc A4” value in data set [3] turned out to be 68.18%.

In the case of “gal-α(1,3)-gal-BSA [gal-α(1,3)-gal-BSA (NGC)]”, the “% Maximum inhibition at Max Conc G12” value in data set [1] is given as 33.93%. The “% Maximum inhibition at Max Conc A11” value in data set [2] is on record as 51.06%. The “% Maximum inhibition at Max Conc A4” value in data set [3] amounted to 36.4%.

B1: scFv G12: chicken anti-Gal-α-(1→3)-Gal single chain antibody fragment, Seq Id No. 3; clone F1 has the same sequence (protein)
scFv: QAALTQPSSVSANPGETVKITCSGGSYHYGWYQQKSPGSAPVTVIYSNNQRPSGIPSRFSGSTSDSTGTLTITGVQADDEAVYFCGSYDSSNTYAGIFGAGTTLTVLGQSSRSSSGGGSSGGGGSAVTLDESGGGFQTPGGALSLVCKASGFTFSSYSMQWVRQAPGKGLEFVAGIGNSDRYTYFGPAVKGRATISRDNGQSTLRLQLNNLRAEDTATYFCARSGDSGNGCTHPWCSADNINAWGHGTEVIVSSTSGQAGQ
modifications: Synthetic protein sequence for scFv-G12 antibody fragment for detecting non-human Gal-alpha(1-3)-Gal
For the molecule B1, the “Specificity for the Gal-α-(1→3)-Gal epitope compared with GS-1-B4” value in data set [4] is “much higher specificity”. For the same molecule, the “Change of near UV CD spectrum” value is listed as “a clear change was detected” in data set [5] (4 mM Galα(1,3)Galβ1-OMe) and “did not cause any significant changes” in data set [5] (4 mM melibiose (negative control)). For the same molecule, the HD in data set [6] (setting [8]) came to 71 ± 5 kcal/mol; in data set [6] (setting [9]) it was 137 ± 24 kcal/mol; in data set [6] (+4 mM melibiose, λ 218), 116 ± 16 kcal/mol; in data set [6] (Pure scFv, λ 208) it was 64 ± 4 kcal/mol; in data set [6] (Pure scFv, λ 218), 116 ± 21 kcal/mol. In addition, the Tm in data set [6] (setting [8]) worked out at 73.5 ± 0.3 °C; in data set [6] (setting [9]), 74.3 ± 0.4 °C; in data set [6] (+4 mM melibiose, λ 218) it was 66.5 ± 0.3 °C; in data set [6] (Pure scFv, λ 208), 64.7 ± 0.2 °C; in data set [6] (Pure scFv, λ 218), 66.4 ± 0.4 °C. In data set [6] (setting [10]), the “Change in cooperativity (HD)” value is “+6.8 Kcal/mol”. In data set [6] (setting [10]), the “Stabilisation (increase in Tm)” value came to 8.8 °C. For the same molecule, the ED50 in data set [7] is 158 μg/ml and 0.46 mM.

In general, Tm refers to the temperature at which the thermal transition is half complete.
